Molecular target: T1, mCherry-LacR-MITF (human, UniProt O75030-9 1-419)
T1 sequence: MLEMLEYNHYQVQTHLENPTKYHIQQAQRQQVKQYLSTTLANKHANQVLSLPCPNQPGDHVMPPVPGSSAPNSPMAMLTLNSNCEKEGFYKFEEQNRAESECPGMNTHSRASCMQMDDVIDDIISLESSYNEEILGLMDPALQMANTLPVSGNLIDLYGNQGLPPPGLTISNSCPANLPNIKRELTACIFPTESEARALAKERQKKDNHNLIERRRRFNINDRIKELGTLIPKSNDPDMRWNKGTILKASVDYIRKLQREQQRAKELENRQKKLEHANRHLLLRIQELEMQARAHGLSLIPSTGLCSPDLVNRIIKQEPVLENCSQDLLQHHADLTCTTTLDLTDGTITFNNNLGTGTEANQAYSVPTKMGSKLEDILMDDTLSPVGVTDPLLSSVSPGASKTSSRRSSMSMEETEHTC
Assay: LacR/LacO nuclear tethering assay

B1: NBS1-GFP (natural protein)
chain: MWKLLPAAGPAGGEPYRLLTGVEYVVGRKNCAILIENDQSISRNHAVLTANFSVTNLSQTDEIPVLTLKDNSKYGTFVNEEKMQNGFSRTLKSGDGITFGVFGSKFRIEYEPLVACSSCLDVSGKTALNQAILQLGGFTVNNWTEECTHLVMVSVKVTIKTICALICGRPIVKPEYFTEFLKAVESKKQPPQIESFYPPLDEPSIGSKNVDLSGRQERKQIFKGKTFIFLNAKQHKKLSSAVVFGGGEARLITEENEEEHNFFLAPGTCVVDTGITNSQTLIPDCQKKWIQSIMDMLQRQGLRPIPEAEIGLAVIFMTTKNYCDPQGHPSTGLKTTTPGPSLSQGVSVDEKLMPSAPVNTTTYVADTESEQADTWDLSERPKEIKVSKMEQKFRMLSQDAPTVKESCKTSSNNNSMVSNTLAKMRIPNYQLSPTKLPSINKSKDRASQQQQTNSIRNYFQPSTKKRERDEENQEMSSCKSARIETSCSLLEQTQPATPSLWKNKEQHLSENEPVDTNSDNNLFTDTDLKSIVKNSASKSHAAEKLRSNKKREMDDVAIEDEVLEQLFKDTKPELEIDVKVQKQEEDVNVRKRPRMDIETNDTFSDEAVPESSKISQENEIGKKRELKEDSLWSAKEISNNDKLQDDSEMLPKKLLLTEFRSLVIKNSTSRNPSGINDDYGQLKNFKKFKKVTYPGAGKLPHIIGGSDLIAHHARKNTELEEWLRQEMEVQNQHAKEESLADDLFRYNPYLKRRR
- median enrichment of GFP at the mCherry dot over the rest of the nucleus: 7 fold

From paper PMC10903946 (Genes & Development, 2024)
